Test results as given in the supplement of paper PMC6379048.
pEC50: −log10 of the molar value.

Assays:
Assay in all cases: EC50 of free RNA motif oligo competing protein binding to immobilised probe
MRPS28 = MRPS28 (UniProt Q9Y2Q9)
Outline: (§1)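 HEK293-FT lysate (2.5 mg protein/well) was treated with free RNA oligos (0 nM to 30 μM) for 1 h at 4°C, then with the same oligos on NHS-Sepharose beads for 30 min at 4°C. Bound proteins were quantified by label-free LC-MS/MS relative to the control. EC50 came from a four-parameter log-logistic fit, and Kd is EC50 times a protein-dependent depletion factor.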

YTHDC2 = target: T1, YTHDC2 (UniProt Q9H6S0)
T1 sequence: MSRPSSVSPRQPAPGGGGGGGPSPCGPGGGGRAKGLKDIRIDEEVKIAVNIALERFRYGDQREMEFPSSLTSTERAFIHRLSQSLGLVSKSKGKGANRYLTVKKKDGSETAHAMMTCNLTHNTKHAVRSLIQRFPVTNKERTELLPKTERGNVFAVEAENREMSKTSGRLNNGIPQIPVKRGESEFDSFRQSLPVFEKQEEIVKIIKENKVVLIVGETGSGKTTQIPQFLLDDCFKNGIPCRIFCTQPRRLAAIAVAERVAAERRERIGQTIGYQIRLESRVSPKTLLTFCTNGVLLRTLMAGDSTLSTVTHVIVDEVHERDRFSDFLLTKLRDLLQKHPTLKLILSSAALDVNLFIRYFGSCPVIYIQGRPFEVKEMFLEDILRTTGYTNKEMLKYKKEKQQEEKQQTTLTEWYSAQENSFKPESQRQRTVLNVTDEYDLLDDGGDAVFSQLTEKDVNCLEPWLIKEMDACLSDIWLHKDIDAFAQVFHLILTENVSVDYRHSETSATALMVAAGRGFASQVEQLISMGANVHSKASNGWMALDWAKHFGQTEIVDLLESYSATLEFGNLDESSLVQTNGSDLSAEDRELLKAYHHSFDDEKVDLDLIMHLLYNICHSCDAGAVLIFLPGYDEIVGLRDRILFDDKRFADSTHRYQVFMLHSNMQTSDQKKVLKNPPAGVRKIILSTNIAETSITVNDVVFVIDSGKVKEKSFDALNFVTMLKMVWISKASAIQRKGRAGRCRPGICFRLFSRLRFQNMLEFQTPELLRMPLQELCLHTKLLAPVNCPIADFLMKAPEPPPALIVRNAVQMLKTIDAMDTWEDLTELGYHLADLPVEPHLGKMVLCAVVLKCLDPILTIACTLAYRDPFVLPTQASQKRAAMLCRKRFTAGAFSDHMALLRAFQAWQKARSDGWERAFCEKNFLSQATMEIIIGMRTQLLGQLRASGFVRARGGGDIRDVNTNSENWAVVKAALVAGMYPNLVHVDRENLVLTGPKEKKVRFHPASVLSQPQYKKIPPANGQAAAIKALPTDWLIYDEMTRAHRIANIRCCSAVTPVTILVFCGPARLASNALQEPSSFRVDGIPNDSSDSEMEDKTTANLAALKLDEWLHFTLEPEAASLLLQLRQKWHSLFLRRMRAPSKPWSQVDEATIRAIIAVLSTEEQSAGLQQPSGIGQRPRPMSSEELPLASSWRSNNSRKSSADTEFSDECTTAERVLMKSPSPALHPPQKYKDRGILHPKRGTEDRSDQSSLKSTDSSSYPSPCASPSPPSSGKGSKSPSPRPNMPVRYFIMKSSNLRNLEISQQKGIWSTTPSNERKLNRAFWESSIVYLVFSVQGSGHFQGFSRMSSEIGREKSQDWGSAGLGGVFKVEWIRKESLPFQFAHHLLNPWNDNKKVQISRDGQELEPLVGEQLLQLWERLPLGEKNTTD
Outline: as §1

MRPL17 = MRPL17 (UniProt Q9NRX2)
Outline: as §1

AASS = target: T2, AASS (UniProt Q9UDR5)
T2 sequence: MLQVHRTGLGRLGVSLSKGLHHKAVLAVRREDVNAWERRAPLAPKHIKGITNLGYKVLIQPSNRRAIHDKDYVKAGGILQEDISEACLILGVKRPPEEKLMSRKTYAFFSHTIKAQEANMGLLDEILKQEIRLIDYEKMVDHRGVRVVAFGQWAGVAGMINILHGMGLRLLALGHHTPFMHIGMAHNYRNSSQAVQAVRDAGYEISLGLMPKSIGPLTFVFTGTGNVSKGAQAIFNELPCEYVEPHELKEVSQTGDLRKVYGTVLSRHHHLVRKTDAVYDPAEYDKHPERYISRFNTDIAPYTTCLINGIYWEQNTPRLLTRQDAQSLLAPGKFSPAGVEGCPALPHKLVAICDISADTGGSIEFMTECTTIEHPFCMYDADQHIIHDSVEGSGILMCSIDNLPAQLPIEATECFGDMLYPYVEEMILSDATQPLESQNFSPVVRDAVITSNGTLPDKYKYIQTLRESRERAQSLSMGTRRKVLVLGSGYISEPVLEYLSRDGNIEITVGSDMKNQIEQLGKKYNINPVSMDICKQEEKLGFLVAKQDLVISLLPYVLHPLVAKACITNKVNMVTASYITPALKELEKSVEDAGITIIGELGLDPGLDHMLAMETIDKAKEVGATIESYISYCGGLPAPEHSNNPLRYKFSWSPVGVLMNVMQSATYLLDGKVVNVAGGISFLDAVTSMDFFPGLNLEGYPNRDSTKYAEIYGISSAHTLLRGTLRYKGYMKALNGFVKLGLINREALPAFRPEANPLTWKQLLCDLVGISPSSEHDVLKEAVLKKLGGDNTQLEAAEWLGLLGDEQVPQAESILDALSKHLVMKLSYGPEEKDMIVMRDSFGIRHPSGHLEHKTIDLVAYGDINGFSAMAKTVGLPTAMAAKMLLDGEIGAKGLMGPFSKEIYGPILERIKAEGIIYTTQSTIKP
Outline: as §1

Sequence: UAUUUAU
- pEC50 (MRPS28): 7.25

Sequence: CUGUCCU
- pEC50 (YTHDC2): 5.65
- pEC50 (MRPL17): 7.28

Sequence: AAUAAA
- pEC50 (AASS): 5.01
